Data from publication PMC9834060.

Experiments:
Assay in all cases: cryo-EM structure; BlaR1 in LMNG, purified by GraDeR glycerol gradient, desalted into 150 mM sodium chloride, 20 mM HEPES pH 7.5; grids blotted at 4 °C; BlaR1(F284A) also with ampicillin (1 mM, then 250 µM)
[1] = target: S. aureus BlaR1 F284A mutant (BlaR1(F284A)) (S. aureus) (UniProt Q00419)
[2] = target: S. aureus BlaR1 F284A mutant acylated with ampicillin (BlaR1(F284A)–ampicillin) (S. aureus) (UniProt Q00419)
[3] = target: S. aureus BlaR1, wild type (BlaR1(WT)) (S. aureus) (UniProt Q00419)

Substance “S. aureus BlaR1 F284A mutant (BlaR1(F284A)) (from UniProt Q00419 1-585) (receptor)” has a stoichiometry N [1] of 2.

Work on “S. aureus BlaR1 F284A mutant acylated with ampicillin (BlaR1(F284A)–ampicillin) (from UniProt Q00419 1-585) (receptor)” yielded a stoichiometry N [2] of 2.

“S. aureus BlaR1, wild type (BlaR1(WT)) (from UniProt Q00419 1-585) (receptor)” showed a stoichiometry N [3] of 2.
